Reference: patent US10501748B2, “Methods and compositions for integration of an exogenous sequence within the genome of plants” (Dow AgroSciences LLC, priority 2013, dated 2019)

How the values were obtained:
[1] = tested on: endogenous AHAS genes (three homoeologous copies); assay: transient assay of ZFN-mediated HR-directed AHAS editing in biolistically transfected scutella of immature zygotic embryos; format: cell-based, Triticum aestivum; conditions: for Editing Frequency (ppm): HR-directed, scutella
From the text: Donor DNA designs were based on a plasmid DNA vector containing 750-bp homology arms (i.e. sequence identical to the endogenous AHAS gene) flanking each side of the target cleavage site for ZFNs 29732 and 29730. A plasmid DNA vector was designed for each of the three wheat sub-genomes: pDAS000132 (FIG. 3), pDAS000133 (FIG. 4) and pDAS000134 (FIG. 5) were designed to the A-, B- and D-genome, respectively (SEQ ID NO:65, SEQ ID NO:66, and SEQ ID NO:67). Each plasmid DNA vector was designed to introduce an S653N ([…]) mutation as a genomic modification conferring tolerance to imidazolinone class herbicides at the target homoeologous copy of the endogenous AHAS gene by ZFN-mediated HR-directed DNA repair. Two additional plasmid DNA constructs were also designed to target the D-genome. The first plasmid DNA, pDAS000135 (SEQ ID NO: 68) (FIG. 6), was identical to pDAS000134 except that it contained two additional (synonymous) single nucleotide point mutations, one each located at 15-bp upstream and downstream of the S653N mutation.
Seedlings of the donor wheat line were grown in an environment controlled growth room maintained at 18/16° C. (day/night) and a 16/8 hour (day/night) photoperiod with lighting provided at […]. Wheat spikes were collected at 12-14 days post-anthesis and were surface sterilized by soaking for 1 min in 70% (v/v) ethanol. The spikes were threshed and the immature seeds were sterilized for 15 min in 17% (v/v) bleach with gentle shaking, followed by rinsing at least three times with sterile distilled water. The embryos were aseptically isolated from the immature seeds under a dissecting microscope. The embryonic axis was removed using a sharp scalpel and discarded. The scutella were placed into a 9 cm PETRI™ dish containing osmotic MS (E3 maltose) medium, with the uncut scutellum oriented upwards. A total of 20 scutella were plated onto each 9 cm PETRI™ dish. The prepared embryos were pre-cultured in the dark at 26° C. for a minimum of 4 h before transfection using biolistics-mediated DNA delivery.
Gold particles for biolistic-mediated DNA delivery were prepared by adding 40 mg of 0.6 micron colloidal gold particles (BioRad) to 1 mL of sterile water in a 1.5 mL microtube. The gold particles were resuspended by vortexing for 5 min. To prepare sufficient material for 10 bombardments, a 50 μL aliquot of the gold particle suspension was transferred to a 1.5 mL microtube containing 5 μg of DNA resuspended in 5 μL of sterile water. Following thorough mixing by vortexing, 50 μL of 2.5 M CaCl2 and 20 μL of 0.1 M spermidine were added to the microtube, with thorough mixing after the addition of each reagent. The DNA-coated gold particles were pelleted by centrifugation for 1 min at maximum speed in a bench top microfuge. The supernatant was removed and 1 mL of 100% ethanol was added to wash and resuspend the gold particles. The gold particles were pelleted by centrifugation, as described above, and the supernatant discarded. The DNA-coated gold particles were resuspended in 110 μL of 100% ethanol and maintained on ice. Following a brief vortex, 10 μL of the gold particle solution was placed centrally onto a macro-carrier membrane and allowed to air dry.
The PDS-1000/HE PARTICLE GUN DELIVERY SYSTEM™ (BioRad) was used to transfect the scutella of immature zygotic wheat embryos by biolistic-mediated DNA delivery. Delivery of the DNA-coated gold particles was performed using the following settings: gap 2.5 cm, stopping plate aperture 0.8 cm, target distance 6.0 cm, vacuum 91.4-94.8 kPa, vacuum flow rate 5.0 and vent flow rate 4.5. The scutella of immature zygotic wheat embryos were bombarded using a 900 psi rupture disc. Each PETRI™ dish containing 20 scutella was bombarded once. The bombarded scutella were incubated at 26° C. in the dark for 16 h before being transferred onto medium for callus induction. The scutella were cultured on callus induction medium in the dark at 26° C. for 7 d. […]

[2] = tested on: endogenous AHAS locus in scutella of cv. Bobwhite MPB26RH; assay: biolistics-mediated transformation for first sequential transgene stack with IMAZAMOX or BASTA selection; format: cell-based, Triticum aestivum; conditions: donor with pDAB109350 at 5:1
Description: A total of 55,468 scutella of immature zygotic embryos from the donor wheat line cv. Bobwhite MPB26RH were prepared for biolistics-mediated DNA delivery, as described previously. DNA-coated gold particles were prepared with the formulations as described above. For transfections performed using the linear double-stranded donor DNA derived from “QA_pDAS000434” or pDAS000433, the donor DNA was mixed at a 5:1 molar ratio with plasmid DNA for pDAB109350 (encoding ZFNs 29732 and 29730). Transfections performed using pDAS000143 were performed using gold particles that were coated only with plasmid DNA for pDAS000143.
Biolistic-mediated transfections were performed as described previously. Following bombardment, the transfected scutella were incubated at 26° C. in the dark for 16 h before being transferred onto medium for callus induction.
Two different chemical selection strategies were used to enrich for regenerated wheat plants with an integrated linear double-stranded donor molecule. […] The purpose of the second chemical selection strategy was to allow the frequency of precise (on-target) versus random (off-target) donor integration to be quantified, as well as the frequency of perfect and imperfect integration at the endogenous AHAS loci. […]

B1: pDAS000132: plasmid donor DNA, 750-bp homology arms, A-genome, introduces S653N mutation; SEQ ID NO:65 (nucleic acid)
DNA: TGCAAGCAGGTCCAAGATTGTGCACATTGACATTGACCCAGCTGAGATTGGCAAGAACAAGCAGCCACATGTCTCCATTTGTGCAGATGTTAAGCTTGCTTTACAGGGGTTGAATGCTCTATTAAATGGGAGCAAAGCACAACAGGGTCTGGATTTTGGTCCATGGCACAAGGAGTTGGATCAGCAGAAGAGGGAGTTTCCTCTAGGATTCAAGACTTTTGGCGAGGCCATCCCGCCGCAATATGCTATCCAGGTACTGGATGAGCTGACAAAAGGGGAGGCGATCATTGCTACTGGTGTTGGGCAGCACCAGATGTGGGCGGCTCAGTATTACACTTACAAGCGGCCACGGCAGTGGCTGTCTTCGTCTGGTTGGGGGCAATGGGATTTGGGTTACCAGCTGCAGCTGGCGCTGCTGTGGCCAACCCAGGTGTTACAGTTGTTGACATTGATGGAGATGGTAGTTTCCTCATGAACATTCAGGAGTTGGCATTGATCCGTATTGAGAACCTCCCTGTGAAGGTGATGATATTGAACAACCAGCATCTGGGAATGGTGGTGCAATGGGAGGATAGGTTTTACAAGGCCAATCGGGCGCACACATACCTTGGCAACCCAGAAAATGAGAGTGAGATATATCCAGATTTTGTGACGATTGCTAAAGGATTCAACGTTCCGGCAGTTCGTGTGACGAAGAAGAGCGAAGTCACTGCAGCAATCAAGAAGATGCTTGAGACCCCAGGGCCATACTTGTTGGATATCATCGTCCCGCATCAGGAGCACGTGCTGCCTATGATCCCAAATGGTGGTGCTTTCAAGGACATGATCATGGAGGGTGATGGCAGGACCTCGTACTGAAATTTCGACCTACAAGACCTACAAGTGTGACATGCGCAATCAGCATGGTGCCCGCGTGTTGTATCAACTACTAGGGGTTCAACTGTGAACCATGCGTTTTCTAGTTTGCTTGTTTCATTCATATAAGCTTGTGTTACTTAGTTCCGAACCCTGTAGCTTTGTAGTCTATGCTCTCTTTTGTAGGGATGTGCTGTCATAAGATATCATGCAAGTTTCTTGTCCTACATATCAATAATAAGTACTTCCATGGAATAATTCTCAGTTCTGTTTTGAATTTTGCATCTTCTCACAAACAGTGTGCTGGTTCCTTTCTGTTACTTTACATGTCTGCCGTGTCCGGTTATGACATAATGACCGATGGAGGGTGGTCAGCAGGTTTTAGACGGGGAGTTGAAACTTTTTTTTGGGGGGAAGAAATCTGAATACAGTTGGGAGGAAAGATAAAAGCATATACCTTGATTAATTTATTGAGCCCAATATCCAGCCTAATTTATCAAGCAATAGGCAGTGTAGGGTGTTGGC
modifications: pDAS000132
Editing Frequency (ppm) ([1]; wheat sub-genome A, ZFN 29732-2A-29730, donor-to-ZFN molar ratio 5:1): 2,353 ppm
Editing Frequency (ppm) ([1]; wheat sub-genome A, ZFN 29732-2A-29730, donor-to-ZFN molar ratio 10:1): 1,800 ppm
Editing Frequency (ppm) ([1]; wheat sub-genome A, ZFN n/a (donor only), average of three biological replicates): 5 ppm
Editing Frequency (ppm) ([1]; wheat sub-genome B, ZFN 29732-2A-29730, ratio 5:1): 42 ppm
Editing Frequency (ppm) ([1]; wheat sub-genome B, ZFN 29732-2A-29730, ratio 10:1): 30 ppm
Editing Frequency (ppm) ([1]; wheat sub-genome B, ZFN n/a (donor only)): 0 ppm
Editing Frequency (ppm) ([1]; wheat sub-genome D, ZFN 29732-2A-29730, ratio 5:1): 110 ppm
Editing Frequency (ppm) ([1]; wheat sub-genome D, ZFN 29732-2A-29730, ratio 10:1): 61 ppm
Editing Frequency (ppm) ([1]; wheat sub-genome D, ZFN n/a (donor only)): 0 ppm
molecular evidence for ZFN-mediated HR-directed editing in all three homoeologous copies of endogenous AHAS ([1]; co-transfected with pDAB109350, scutella (pDAS000131 and pDAS000134 also SEC protoplasts)): strong molecular evidence

B2: pDAS000433: donor molecule backbone for first transgene stack, S653N; SEQ ID NO:71 (nucleic acid)
DNA: CCACTCTTGCCCTACACGACACTGAAGACCTTATGATTCCAAACGGCGGCGCCTTCAAGGACATGATCATGGAGGGTGATGGCAGGACCTCGTACTGAAATTTCGACCTACAAGACCTACAAGTGTGACATGCGCAATCAGCATGGTGCCCGCGTGTTGTATCAACTACTAGGGGTTCAACTGTGAACCATGCGTTTTCTAGTTTGCTTGTTTCATTCATATAAGCTTGTGTTACTTAGTTCCGAACCCTGTAGCTTTGTAGTCTATGCTCTCTTTTGTAGGGATGTGCTGTCATAAGATATCATGCAAGTTTCTTGTCCTACATATCAATAATAAGTACTTCCATGGAATAATTCTCAGTTCTGTTTTGAATTTTGCATCTTCTCACAAACAGTGTGCTGGTTCCTTTCTGTTCGCTGACGCCCTCCTCGACTCCATCCCCATGGTCGCCATCACGGGCCAGGTCCCCCGCCGCATGATCGGTAGCGACTTCGTGGGCGAGGAAAGCCTTTCGTCCAAGGTGGTCCCTCCTCGCAATCTTGTTGGATGGTGAATATTATAAAAGCCTGCCCTTCTCGCGGGTAAGACTCCCGCCCATCCAGGATGAGGATGACCAGCCTTTTGCAGTTTATCCACTAGGGACAGGATTGCATCCTGCCGAAACCCTGCCAAGCTTGAGGTAGCCTCCAATTTGACGGTGCCGCCAGCGACGCCGTCTGGAACTGTCCTTTTTGAGGACCACTCCGTTTGTCTAGAGGTACCTGGAGATCATGACATTAAGGATGACCAGTTCGTAAAGGTCCTGCGGTGTCTATTGCTTTTCATAGGTTAATAAGTGTTTGCTAGACTGTGGTGAAAGGCCAAGACTCCCGCCCATCTCTCTATGCCCGGGACAAGTGCCACCCCACAGTGGGGCAGGATGAGGATGACCAAAGACTCCCGCCCATCTCACTAGGGACAGGATTGGCCTTTTGCAGTTTATCTCTATGCCCGGGACAAGTGTATCCGAAGTAAATAAAACCATCGGACTCTCGTATAAGACTGTCGACTCGACCGGCCGACGCATAGGTTCATTTGAAGCTGCTATTCTATTTAAATTGAAACTCGGACGGTAGCAGTGTGGTATGAGGTCTTCAGCACACTCGGTAACTCCAGTCAC
modifications: pDAS000433
wheat plants recovered ([2]; BASTA selection): 1,652
wheat plants with AHAS herbicide tolerance phenotype recovered ([2]; IMAZAMOX selection): No wheat plants
